Measured values published in patent publication US6995240.

Biological target: HLA-DR on rheumatoid synovial fluid mononuclear cells (human)
Test: cell-based or functional assay

- inhibition of rheumatoid synovial fluid T cell proliferation to p78: 66 to 84%
Substance: anti-HLA-DR monoclonal antibody L243 (ATCC)
